{
  "source": "paper doi:10.1101/2024.09.24.614694",
  "biological_target": "CLuc-TaVIH2 (Triticum aestivum (wheat))",
  "test": "split reporter",
  "data": [
    {"substance": "NLuc-TaFLA7 (natural protein)", "values": [
      {"measurement": "fold increase of luminescence (RLU) over controls", "result": "7 to 8", "unit": "fold"}
    ]}
  ]
}
